# Numbered stars: 1 amine (or outer) side, 2 acyl side, 3 side chain; on linkers, the order of the positions; unused ones are H or OH. Bridge positions count the residues as written; N and C are the ends. Side chains are listed from the residue outwards. Ends that are not written are not given here. * marks the point of attachment. C20 diacid = O=C(O)CCCCCCCCCCCCCCCCCCC(=O)*; γGlu = O=C(O)[C@H](CCC(=O)[*:2])N[*:1]; AEEA = NCCOCCOCC(=O)O
# T1: human calcitonin receptor (human, UniProt P30988 25-474)
# T1 construct: whole, on cells; Assay used cell membranes of the transfected BHK cells; also called hCTR; hCT
# T1 sequence (looked up): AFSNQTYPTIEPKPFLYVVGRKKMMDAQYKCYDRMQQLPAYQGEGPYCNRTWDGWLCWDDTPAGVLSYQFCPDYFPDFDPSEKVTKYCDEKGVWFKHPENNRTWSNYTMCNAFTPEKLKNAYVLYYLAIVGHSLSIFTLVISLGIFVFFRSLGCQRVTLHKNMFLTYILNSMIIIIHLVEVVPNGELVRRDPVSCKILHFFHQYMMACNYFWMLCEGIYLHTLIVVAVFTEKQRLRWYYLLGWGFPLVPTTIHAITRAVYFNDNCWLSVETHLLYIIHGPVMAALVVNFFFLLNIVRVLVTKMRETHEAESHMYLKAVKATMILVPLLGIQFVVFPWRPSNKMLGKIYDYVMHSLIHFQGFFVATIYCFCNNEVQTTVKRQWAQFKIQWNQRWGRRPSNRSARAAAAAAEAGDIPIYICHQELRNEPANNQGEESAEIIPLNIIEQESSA
# B1: N^ε1-[2-[2-[2-[[(4S)-4-carboxy-4-(19-carboxynonadecanoylamino)butanoyl]amino]ethoxy]ethoxy]acetyl]-[Arg17,Pro21,Pro27,Glu35]-h-amylin (peptide)
# peptide: K([AEEA-γGlu-C20 diacid])CNTATCATQRLANFLRHSSPNFGAIPSSTNVGSETY-NH2
# modifications: disulfide 2-7; N-terminus assumed
# SMILES: CC[C@H](C)[C@H](NC(=O)[C@H](C)NC(=O)CNC(=O)[C@H](Cc1ccccc1)NC(=O)[C@H](CC(N)=O)NC(=O)[C@@H]1CCCN1C(=O)[C@H](CO)NC(=O)[C@H](CO)NC(=O)[C@H](Cc1c[nH]cn1)NC(=O)[C@H](CCCNC(=N)N)NC(=O)[C@H](CC(C)C)NC(=O)[C@H](Cc1ccccc1)NC(=O)[C@H](CC(N)=O)NC(=O)[C@H](C)NC(=O)[C@H](CC(C)C)NC(=O)[C@H](CCCNC(=N)N)NC(=O)[C@H](CCC(N)=O)NC(=O)[C@@H](NC(=O)[C@H](C)NC(=O)[C@@H]1CSSC[C@H](NC(=O)[C@@H](N)CCCCNC(=O)COCCOCCNC(=O)CC[C@H](NC(=O)CCCCCCCCCCCCCCCCCCC(=O)O)C(=O)O)C(=O)N[C@@H](CC(N)=O)C(=O)N[C@@H]([C@@H](C)O)C(=O)N[C@@H](C)C(=O)N[C@@H]([C@@H](C)O)C(=O)N1)[C@@H](C)O)C(=O)N1CCC[C@H]1C(=O)N[C@@H](CO)C(=O)N[C@@H](CO)C(=O)N[C@H](C(=O)N[C@@H](CC(N)=O)C(=O)N[C@H](C(=O)NCC(=O)N[C@@H](CO)C(=O)N[C@@H](CCC(=O)O)C(=O)N[C@H](C(=O)N[C@@H](Cc1ccc(O)cc1)C(N)=O)[C@@H](C)O)C(C)C)[C@@H](C)O
# notes: Synthetic analogue; also called compound 26
# B2: N^ε1-[(4S)-4-carboxy-4-[[(4S)-4-carboxy-4-(19-carboxynonadecanoylamino)butanoyl]amino]butanoyl]-[Asp14,Arg17,Pro21,Pro26,Asp35]-h-amylin (peptide)
# peptide: K([γGlu-γGlu-C20 diacid])CNTATCATQRLADFLRHSSPNFGAPLSSTNVGSDTY-NH2
# modifications: disulfide 2-7; N-terminus assumed
# SMILES: CC(C)C[C@H](NC(=O)[C@H](CCCNC(=N)N)NC(=O)[C@H](CCC(N)=O)NC(=O)[C@@H](NC(=O)[C@H](C)NC(=O)[C@@H]1CSSC[C@H](NC(=O)[C@@H](N)CCCCNC(=O)CC[C@H](NC(=O)CC[C@H](NC(=O)CCCCCCCCCCCCCCCCCCC(=O)O)C(=O)O)C(=O)O)C(=O)N[C@@H](CC(N)=O)C(=O)N[C@@H]([C@@H](C)O)C(=O)N[C@@H](C)C(=O)N[C@@H]([C@@H](C)O)C(=O)N1)[C@@H](C)O)C(=O)N[C@@H](C)C(=O)N[C@@H](CC(=O)O)C(=O)N[C@@H](Cc1ccccc1)C(=O)N[C@@H](CC(C)C)C(=O)N[C@@H](CCCNC(=N)N)C(=O)N[C@@H](Cc1c[nH]cn1)C(=O)N[C@@H](CO)C(=O)N[C@@H](CO)C(=O)N1CCC[C@H]1C(=O)N[C@@H](CC(N)=O)C(=O)N[C@@H](Cc1ccccc1)C(=O)NCC(=O)N[C@@H](C)C(=O)N1CCC[C@H]1C(=O)N[C@@H](CC(C)C)C(=O)N[C@@H](CO)C(=O)N[C@@H](CO)C(=O)N[C@H](C(=O)N[C@@H](CC(N)=O)C(=O)N[C@H](C(=O)NCC(=O)N[C@@H](CO)C(=O)N[C@@H](CC(=O)O)C(=O)N[C@H](C(=O)N[C@@H](Cc1ccc(O)cc1)C(N)=O)[C@@H](C)O)C(C)C)[C@@H](C)O
# notes: Synthetic analogue; also called compound 1
# B3: N^ε1-[(4S)-4-carboxy-4-(19-carboxynonadecanoylamino)butanoyl]-[Arg17,Pro21,Pro27,Lys35]-h-amylin (peptide)
# peptide: K([γGlu-C20 diacid])CNTATCATQRLANFLRHSSPNFGAIPSSTNVGSKTY-NH2
# modifications: disulfide 2-7; N-terminus assumed
# SMILES: CC[C@H](C)[C@H](NC(=O)[C@H](C)NC(=O)CNC(=O)[C@H](Cc1ccccc1)NC(=O)[C@H](CC(N)=O)NC(=O)[C@@H]1CCCN1C(=O)[C@H](CO)NC(=O)[C@H](CO)NC(=O)[C@H](Cc1c[nH]cn1)NC(=O)[C@H](CCCNC(=N)N)NC(=O)[C@H](CC(C)C)NC(=O)[C@H](Cc1ccccc1)NC(=O)[C@H](CC(N)=O)NC(=O)[C@H](C)NC(=O)[C@H](CC(C)C)NC(=O)[C@H](CCCNC(=N)N)NC(=O)[C@H](CCC(N)=O)NC(=O)[C@@H](NC(=O)[C@H](C)NC(=O)[C@@H]1CSSC[C@H](NC(=O)[C@@H](N)CCCCNC(=O)CC[C@H](NC(=O)CCCCCCCCCCCCCCCCCCC(=O)O)C(=O)O)C(=O)N[C@@H](CC(N)=O)C(=O)N[C@@H]([C@@H](C)O)C(=O)N[C@@H](C)C(=O)N[C@@H]([C@@H](C)O)C(=O)N1)[C@@H](C)O)C(=O)N1CCC[C@H]1C(=O)N[C@@H](CO)C(=O)N[C@@H](CO)C(=O)N[C@H](C(=O)N[C@@H](CC(N)=O)C(=O)N[C@H](C(=O)NCC(=O)N[C@@H](CO)C(=O)N[C@@H](CCCCN)C(=O)N[C@H](C(=O)N[C@@H](Cc1ccc(O)cc1)C(N)=O)[C@@H](C)O)C(C)C)[C@@H](C)O
# notes: Synthetic analogue; also called compound 35
# B4: N^ε1-[(4S)-4-carboxy-4-(19-carboxynonadecanoylamino)butanoyl]-[Arg17,Pro21,Pro27,Glu35]-h-amylin (peptide)
# peptide: K([γGlu-C20 diacid])CNTATCATQRLANFLRHSSPNFGAIPSSTNVGSETY-NH2
# modifications: disulfide 2-7; N-terminus assumed
# SMILES: CC[C@H](C)[C@H](NC(=O)[C@H](C)NC(=O)CNC(=O)[C@H](Cc1ccccc1)NC(=O)[C@H](CC(N)=O)NC(=O)[C@@H]1CCCN1C(=O)[C@H](CO)NC(=O)[C@H](CO)NC(=O)[C@H](Cc1c[nH]cn1)NC(=O)[C@H](CCCNC(=N)N)NC(=O)[C@H](CC(C)C)NC(=O)[C@H](Cc1ccccc1)NC(=O)[C@H](CC(N)=O)NC(=O)[C@H](C)NC(=O)[C@H](CC(C)C)NC(=O)[C@H](CCCNC(=N)N)NC(=O)[C@H](CCC(N)=O)NC(=O)[C@@H](NC(=O)[C@H](C)NC(=O)[C@@H]1CSSC[C@H](NC(=O)[C@@H](N)CCCCNC(=O)CC[C@H](NC(=O)CCCCCCCCCCCCCCCCCCC(=O)O)C(=O)O)C(=O)N[C@@H](CC(N)=O)C(=O)N[C@@H]([C@@H](C)O)C(=O)N[C@@H](C)C(=O)N[C@@H]([C@@H](C)O)C(=O)N1)[C@@H](C)O)C(=O)N1CCC[C@H]1C(=O)N[C@@H](CO)C(=O)N[C@@H](CO)C(=O)N[C@H](C(=O)N[C@@H](CC(N)=O)C(=O)N[C@H](C(=O)NCC(=O)N[C@@H](CO)C(=O)N[C@@H](CCC(=O)O)C(=O)N[C@H](C(=O)N[C@@H](Cc1ccc(O)cc1)C(N)=O)[C@@H](C)O)C(C)C)[C@@H](C)O
# notes: Synthetic analogue; also called compound 27
# B5: N^ε1-[2-[2-[2-[[(4S)-4-carboxy-4-(19-carboxynonadecanoylamino)butanoyl]amino]ethoxy]ethoxy]acetyl]-[Arg17,Pro21,Pro27,Pro31]-h-amylin (peptide)
# peptide: K([AEEA-γGlu-C20 diacid])CNTATCATQRLANFLRHSSPNFGAIPSSTPVGSNTY-NH2
# modifications: disulfide 2-7; N-terminus assumed
# SMILES: CC[C@H](C)[C@H](NC(=O)[C@H](C)NC(=O)CNC(=O)[C@H](Cc1ccccc1)NC(=O)[C@H](CC(N)=O)NC(=O)[C@@H]1CCCN1C(=O)[C@H](CO)NC(=O)[C@H](CO)NC(=O)[C@H](Cc1c[nH]cn1)NC(=O)[C@H](CCCNC(=N)N)NC(=O)[C@H](CC(C)C)NC(=O)[C@H](Cc1ccccc1)NC(=O)[C@H](CC(N)=O)NC(=O)[C@H](C)NC(=O)[C@H](CC(C)C)NC(=O)[C@H](CCCNC(=N)N)NC(=O)[C@H](CCC(N)=O)NC(=O)[C@@H](NC(=O)[C@H](C)NC(=O)[C@@H]1CSSC[C@H](NC(=O)[C@@H](N)CCCCNC(=O)COCCOCCNC(=O)CC[C@H](NC(=O)CCCCCCCCCCCCCCCCCCC(=O)O)C(=O)O)C(=O)N[C@@H](CC(N)=O)C(=O)N[C@@H]([C@@H](C)O)C(=O)N[C@@H](C)C(=O)N[C@@H]([C@@H](C)O)C(=O)N1)[C@@H](C)O)C(=O)N1CCC[C@H]1C(=O)N[C@@H](CO)C(=O)N[C@@H](CO)C(=O)N[C@H](C(=O)N1CCC[C@H]1C(=O)N[C@H](C(=O)NCC(=O)N[C@@H](CO)C(=O)N[C@@H](CC(N)=O)C(=O)N[C@H](C(=O)N[C@@H](Cc1ccc(O)cc1)C(N)=O)[C@@H](C)O)C(C)C)[C@@H](C)O
# notes: Synthetic analogue; also called compound 49
# Molecular target: T1, human calcitonin receptor
# Assay: ratio IC50 hCTR / IC50 hAmylin-R of the two SPA competition assays; reference: human amylin receptor
# Protocol: The resulting pellet was resuspended, homogenized and centrifuged (20.000 rpm, 15 min) in a buffer containing 20 mM Na-HEPES and 0.1 mM EDTA (pH 7.4, buffer 2). The resulting pellet was resuspended in buffer 2 and protein concentration was measured (BCA protein Assay, Pierce). The homogenate was kept cold during the whole procedure. The membranes were kept at −80° C. until use. The assay was performed in a 384 well Optiplate (PerkinElmer) in a total volume of 40 ul. Membranes were mixed with SPA beads. Final concentration of membranes 35 ng/μL final and SPA beads was 0.05 mg/well. Test-compounds were dissolved in DMSO and further diluted in assay buffer (50 mM Hepes, pH 7.4, 1 mM CaCl2, 5 mM MgCl₂, 0.1% OA and 0.02% Tween20). […] The final mixture was incubated with shaking at 400 rpm for 120 min at 25° C. prior to centrifugation (1500 rpm, 10 min). Samples were analyzed on TopCounter™ (Packard). The IC₅₀ was calculated using (one site binding competition analysis) GraphPad Prism5 as a measure of receptor affinity.
# Membranes were prepared in the following way; the cells were rinsed with PBS and incubated with Versene for approximately 5 min before harvesting. The cells were flushed with PBS and the cell-suspension was centrifuged for 5 min at 1000 rpm. Cells were homogenized (Ultrathurrax) in a buffer containing 20 mM Na-HEPES and 10 mM EDTA (pH 7.4) and centrifuged at 20.000 rpm for 15 min. The resulting pellet was resuspended, homogenized and centrifuged (20.000 rpm, 15 min) in a buffer containing 20 mM Na-HEPES and 0.1 mM EDTA (pH 7.4, buffer 2). The resulting pellet was resuspended in buffer 2 and protein concentration was measured (BCA protein Assay, Pierce). The homogenate was kept cold during the whole procedure. The membranes were kept at −80° C. until use. Assay was performed in a 384 well Optiplate (PerkinElmer) in a total volume of 40 ul. Membranes were mixed with SPA beads.
row,Ratio hCT/hAmylin binding,Binder
1,47.5,B1
2,27.6,B2
3,50.3,B3
4,41.3,B4
5,10.8,B5

# Molecular target: T1, human calcitonin receptor
# Assay: SPA radioligand competition (125I-calcitonin), membranes of BHK cells with human calcitonin receptor
# Procedure, shortened: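 BHK hCTR membranes 35 ng/μL + SPA beads 0.05 mg/well; buffer 50 mM Hepes pH 7.4, 1 mM CaCl2, 5 mM MgCl₂, 0.1% OA, 0.02% Tween20. 120 min, 25° C., shaking. Scintillation count; IC50 by one-site binding competition.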
row,IC50,Binder
1,25.3 nM,B1
2,32.5 nM,B2
3,48.8 nM,B3
4,34.5 nM,B4
5,12.9 nM,B5

# Reference: patent US20140087995A1 (published 2014)
